# Experiments:
# [1] = molecular target: T1, Nrh/IP3R1 complex (Flag-Nrh / HA-hBD IP3R1) (Homo sapiens, UniProt Q9HD36); experiment: Co-immunoprecipitation of Flag-Nrh and HA-hBD IP3R1 in HeLa cells pre-incubated with dTAT peptides; type: cell-based; conditions: 10 μM peptide, pre-incubated 1 h at 37° C., no external agent
# T1 construct: expressed in transfected cells; host or cells: HeLa
# T1 sequence (Q9HD36 11-204): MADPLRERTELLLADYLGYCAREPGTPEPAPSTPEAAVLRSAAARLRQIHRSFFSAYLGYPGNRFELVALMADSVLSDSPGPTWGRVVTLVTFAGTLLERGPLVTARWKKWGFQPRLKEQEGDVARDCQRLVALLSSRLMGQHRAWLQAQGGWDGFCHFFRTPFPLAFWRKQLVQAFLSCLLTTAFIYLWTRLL
# Protocol: (B) The interaction between Flag-Nrh and HA-hBD IP3R1 was assessed by co-immunoprecipitation in HeLa cells transfected with a plasmid coding for Flag-Nrh or HA-hBD IP3R1, pre-incubated with 10 μM control peptide (dTAT 1-23 C20A Y16F) or 10 μM peptide (dTAT 1-23 C20A). In this experiment, dTAT-Nrh 1-23 C20A but not dTAT 1-23 C20A Y16F disrupts the Nrh/IP3R1 complex.
# The interaction between Flag-Nrh (Bcl-2 L10) and HA-hBD IP3R1 was assessed by co-immunoprecipitation in HeLa cells transfected with a plasmid coding for Flag-Nrh or HA-hBD IP3R1, pre-incubated for 1 h at 37° C. in Ca^2+-free Balanced Salt Solution (121 mM NaCl, 5.4 mM KCl, 0.8 mM MgCl2, 6 mM NaHCO3, 5.5 mM D-glucose, 25 mM HEPES, pH 7.3) with vehicle (peptide solvant [H2O-TFA 0.1%]), and: • 10 μM of control peptide (dTAT 1-23 Y16F C20A) or • 10 μM of wild-type peptide (dTAT 1-23 C20A).
# Cells were washed twice and incubated for another 1 h at 37° C. before harvest.
# [2] = system: MDA-MB-231 cancer cells; experiment: MDA-MB-231 tumour growth in the mammary fat pad of SCID mice; type: in vivo; conditions: 10 mg/kg, peritumoral injection, once every three days, monotherapy, versus vehicle (PBS); P<0.01
# Protocol: (A) MDA-MB-231 cells have been injected into the mammary fat pad of SCID mice. When the tumors reached a mean volume of about 90 mm^3, mice were treated with dTAT 1-23 C20A peptide at 10 mg/kg, peritumoral injection, once every three days, or vehicle alone (PBS) with the same injection periodicity.
# SCID Mice have been used as tumor model for testing the effects of administration of the peptides according to the invention
# MDA-MB-231 cancer cells have been injected into the mammary fat pad of SCID mice.
sequence,measurement,setting,value
CKRKKRRQRRRGGSGGADPLRERTELLLADYLGYAARE [dTAT 1-23 C20A],disruption of the Nrh/IP3R1 complex (co-immunoprecipitation),[1],disrupt the Nrh/IP3R1 complex
same,effect on tumoral growth (tumor volume),[2],significant effect

# From patent publication US20190030126A1, “Inhibitors of the Interaction BCL-2 L10 / IP3 Receptors” (Universite Claude Bernard - Lyon 1, priority 2016, published 2019)
